The values below come from article PMC7457611 (bioRxiv, 2020).

First the molecules themselves.
B1: C110 IgG (antibody, V domains shown)
VH: QVQLQQSGAEVKKPGESLKISCKGSGYSFTSYWIGWVRQMPGKGLEWMGIIYPGDSDTRYSPSFQGQVTISADKSISTAYMQWSSLKASDTAMYYCARSFRDDPRIAVAGPADAFDIWGQGTMVTVSS
VL: DIQMTQSPSTLSASVGDRVTITCRASQSISYWLAWYQQKPGKAPKLLIYQASSLESGVPSRFSGSESGTEFTLTISSLQPDDFATYYCQQYNSYPYTFGQGTKLEIK
B2: C002 IgG (antibody, V domains shown)
VH: EVQLVESGGGVVQPGRSLRLSCAASGFTFSIYGMHWVRQAPGKGLEWVAVISYDGSNKYYADSVKGRFTISRDNSKNTLYLQMNSLRAEDTAVYYCAKEGRPSDIVVVVAFDYWGQGTLVTVSS
VL: not shown
B3: C105 IgG (antibody, V domains shown)
VH: QVQLVESGGGLIQPGGSLRLSCAASGFTVSSNYMSWVRQAPGKGLEWVSVIYSGGSTYYADSVKGRFTISRDNSKNTLYLQMNSLRAEDTAVYYCARGEGWELPYDYWGQGTLVTVSS
VL: QSALTQPPSASGSPGQSVTISCTGTSSDVGGYKYVSWYQQHPGKAPKLMIYEVSKRPSGVPDRFSGSKSGNTASLTVSGLQAEDEADYYCSSYEGSNNFVVFGGGTKLTVL
B4: C121 IgG (antibody, V domains shown)
VH: not shown
VL: QSALTQPASVSGSPGQSITISCTGTSSDVGSYNLVSWYQQHPGKAPKLMIYEGSKRPSGVSNRFSGSKSGNTASLTISGLQAEDEADYYCCSYAGSSTLVFGGGTKLTVL
B5: C119 IgG (antibody, V domains shown)
VH: QVQLVQSGAEVKKPGASVKVSCKASGYTFTSYYMHWVRQAPGQGLEWMGIINPSGGSTSYAQKLQGRVTMTRDTSTSTVYMELSSLRSEDTAVYYCARANHETTMDTYYYYYYMDVWGKGTTVTVSS
VL: QSALTQPASVSGSPGQSITISCTGTSSDVGGYKYVSWYQRHPGKAPKLMIYDVSNRPSGVSNRFSGSKSGNTASLTISGLQAEDEADYYCSSYTSSSTSVVFGGGTQLTVL
B6: C104 IgG (antibody, V domains shown)
VH: QVQLQQWGAGLLKPSETLSLSCAVYGGSLSGYYWSWIRQPPGKGLEWIGEINHFGSTGYNPSLKSRVTISVDTSKSQFSVKLSSVTAADTAVYYCARKPLLYSNLSPGAFDIWGQGTMVTVSS
VL: EIVLTQSPGTVSLSPGERATLSCWASQSVSASYLAWYQQKPGQAPRLLIYGASSRATGIPDRFSGSGSGTDFTLTISRLEPEDFAVYYCQQYGTTPRTFGGGTKVEIK

This experiment deals with SARS-CoV-2 spike receptor-binding domain (RBD), residues 331-524 (SARS-CoV-2, early isolate GenBank …, UniProt P0DTC2). Kind of experiment: SPR. A general note: In SPR one partner is held on a chip, and binding of the other changes the refractive index at the surface.
B1: the binding result is given as “binds”.

Regarding B2, the binding result is on record as “binds”.

On to B3, for which the binding result is “binds”.

As to B4, the binding result is given as “binds”.

With B5, the binding result is recorded as “binds”.

In the case of B6, the binding result is reported as “binds”.
